Molecular target: FLAG-ZNF224 (UniProt Q9NZL3 1-707)
Experiment: SPR; protein immobilized, oligo as analyte; SPR: 1x PBS, Reichert SR7500DC, CMDH chip, oligo 0-10 uM; pH and temperature not stated; ELISA buffer not in material
Conditions: protein: recombinant; tags: 3xFLAG; label: 5'-biotin (ELISA oligos); hairpin

Sequence of FLAG-ZNF224 (Q9NZL3 whole entry): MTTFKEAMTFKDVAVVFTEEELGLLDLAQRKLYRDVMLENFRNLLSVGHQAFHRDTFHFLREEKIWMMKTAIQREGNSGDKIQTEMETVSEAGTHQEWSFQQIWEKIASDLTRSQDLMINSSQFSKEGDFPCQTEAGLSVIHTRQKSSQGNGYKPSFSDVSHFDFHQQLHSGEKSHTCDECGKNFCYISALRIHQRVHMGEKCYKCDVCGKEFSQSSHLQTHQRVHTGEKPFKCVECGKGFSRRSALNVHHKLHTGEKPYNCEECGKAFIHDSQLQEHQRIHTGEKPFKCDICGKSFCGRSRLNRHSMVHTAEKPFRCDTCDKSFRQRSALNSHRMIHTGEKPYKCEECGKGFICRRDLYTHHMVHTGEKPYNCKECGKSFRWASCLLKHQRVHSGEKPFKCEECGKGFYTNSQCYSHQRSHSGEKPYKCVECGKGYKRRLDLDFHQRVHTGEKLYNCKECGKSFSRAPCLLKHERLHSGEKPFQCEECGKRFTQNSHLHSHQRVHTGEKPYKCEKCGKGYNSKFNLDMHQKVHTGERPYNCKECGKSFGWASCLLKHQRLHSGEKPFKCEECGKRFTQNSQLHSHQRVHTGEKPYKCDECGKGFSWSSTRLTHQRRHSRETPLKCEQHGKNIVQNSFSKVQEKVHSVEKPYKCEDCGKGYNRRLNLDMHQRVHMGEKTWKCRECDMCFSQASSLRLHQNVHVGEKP

Binder | Kd [nM]
GCAGCAA hairpin oligo (dsDNA) DNA 1: CCAAGCAGCAAAAAGGGAAAAACCCTTTTTGCTGCTTGG DNA 2: CCAAGCAGCAAAAAGGGTTTTTCCCTTTTTGCTGCTTGG | 420 ± 30
CAGCTTC hairpin oligo (dsDNA) DNA 1: CCAAGAAGCTGAAAGGGAAAAACCCTTTCAGCTTCTTGG DNA 2: CCAAGAAGCTGAAAGGGTTTTTCCCTTTCAGCTTCTTGG | 1250 ± 60
CAGCGTC hairpin oligo (dsDNA) DNA 1: CCAAGACGCTGAAAGGGAAAAACCCTTTCAGCGTCTTGG DNA 2: CCAAGACGCTGAAAGGGTTTTTCCCTTTCAGCGTCTTGG | 2000 ± 100

— PMC5058748, “ZNF224, Krüppel like zinc finger protein, induces cell growth and apoptosis-resistance by down-regulation of p21 and p53 via miR-663a”
